Measurements published in patent US20250304621A1, “POLYPEPTIDE FOR SPECIFICALLY BLOCKING BINDING OF ACVR1C TO GREM1 AND USE THEREOF” (The Seventh Affiliated Hospital, Sun Yat-Sen University, priority 2024, published 2025).
“Also recorded” adds a separate entry of the source.

T1: binding of GREM1 to ACVR1C (Homo sapiens, UniProt O60565)
T1 construct: his-tagged full-length GREM1 were purified; His; made in house
T1 sequence (O60565 25-184): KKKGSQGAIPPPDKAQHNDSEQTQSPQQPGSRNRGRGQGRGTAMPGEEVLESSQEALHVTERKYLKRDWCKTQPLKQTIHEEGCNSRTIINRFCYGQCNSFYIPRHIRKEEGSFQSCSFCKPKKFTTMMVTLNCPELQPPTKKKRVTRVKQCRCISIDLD

T2: GREM1 (Homo sapiens (Human), UniProt O60565 25-184, limits assumed)
T2 construct: also called Gremlin1
T2 sequence: T1 sequence (O60565 25-184)


Key:
[1] = molecular target: T1, binding of GREM1 to ACVR1C; assay: Pull-down experiment: Fc-tagged ACVR1C-ECD and his-tagged full-length GREM1 with ACVR1C peptide; settings: purified Fc-tagged ACVR1C-ECD (AA 1-113) and his-tagged full-length GREM1; FIG. 11b
Experimental: The Fc-tagged ACVR1C extracellular domain (ACVR1C-ECD, AA 1-113) and his-tagged full-length GREM1 were purified, and ACVR1C peptide (with an amino acid sequence of TECCFTDFCNNITLHLPTA, SEQ ID NO: 7) which blocked the binding of ACVR1C to GREM1 ligand thereof was synthesized (FIG. 11a). The Pull-down experiment was performed.

[2] = tested on: HCT116-luc cells (colorectal liver metastasis); assay: Colorectal liver metastasis model: HCT116-luc cells injected through the spleen, live bioluminescence imaging; format: in vivo; settings: NOG mice, PLV-GREM1 HCT116-luc cells via spleen, 10 mg/kg by tail vein once every 2 days
Experimental: Grouping: a total of 18 6-week-old NOG mice were taken and randomized into 3 groups 5 days after adaptive feeding: control group (PLV), GREM1 overexpression group (PLV-GREM1) and ACVR1C polypeptide treatment group (PLV-GREM1+ACVR1C peptide), 6/group.
Modeling: HCT116-luc cell suspensions were prepared with cell densities adjusted to 1×10^7 cells/mL. The mice to be treated were taken out and anesthetized by intraperitoneal injection of 2% sodium pentobarbital at a dose of 45 μL/20 g. After about 5 minutes, the mice began to enter a quiet state. White gauze was spread on a mouse board, the mice were placed in left lying position, the abdominal hair of the mice was shaved, and the abdominal side was disinfected from the neck to the groin with alcohol cotton pads. The skin was cut open 1-2 cm below the lower edge of the left costal arch to expose the abdominal wall muscles. The abdominal wall muscles were pulled with pointed forceps to avoid the spleen in the abdominal cavity. The abdominal wall muscles were cut open to expose the internal organs. The pancreas was gently pulled with circular forceps, and the spleen was pulled out. […]

GREM1 = molecular target: T2, GREM1; assay: co-IP in HCT116 cells
From the text: To further describe the binding sites between GREM1 and ACVR1C, a truncated GREM1 and ACVR1C extracellular domain (ACVR1C-ECD) is constructed.

| binding result (GREM1) | Molecule | inhibition of the binding of GREM1 to ACVR1C (pull-down) [1] | inhibition of liver metastasis of colorectal cancer cells (bioluminescence imaging) ([2]; FIG. 12) | inhibition of liver metastasis of colorectal cancer cells (bioluminescence imaging) ([2]; FIG. 12, listed as polypeptide) |
| --- | --- | --- | --- | --- |
|  | TECCFTDFCNNITLHLPTA [ACVR1C peptide] | competitively inhibited the binding of GREM1 to ACVR1C; also recorded: can interfere or block the binding of GREM1 to ACVR1C | significantly lower than that in a control group | significantly inhibits liver metastasis of colorectal cancer cells; also recorded: significantly inhibit the colorectal cancer metastasis |
| no binding | ELSPGLKCVCLLCDSSNFTCQTEGACWASVMLTNGKEQVIKSCVSLP (receptor) [truncated ACVR1C-ECD lacking amino acids 68-113 (A4)] |  |  |  |
